Test [1] concerns the target T1, His6-MBP-Ctc1 (human, UniProt Q2NKJ3 1-1217).
T1 sequence: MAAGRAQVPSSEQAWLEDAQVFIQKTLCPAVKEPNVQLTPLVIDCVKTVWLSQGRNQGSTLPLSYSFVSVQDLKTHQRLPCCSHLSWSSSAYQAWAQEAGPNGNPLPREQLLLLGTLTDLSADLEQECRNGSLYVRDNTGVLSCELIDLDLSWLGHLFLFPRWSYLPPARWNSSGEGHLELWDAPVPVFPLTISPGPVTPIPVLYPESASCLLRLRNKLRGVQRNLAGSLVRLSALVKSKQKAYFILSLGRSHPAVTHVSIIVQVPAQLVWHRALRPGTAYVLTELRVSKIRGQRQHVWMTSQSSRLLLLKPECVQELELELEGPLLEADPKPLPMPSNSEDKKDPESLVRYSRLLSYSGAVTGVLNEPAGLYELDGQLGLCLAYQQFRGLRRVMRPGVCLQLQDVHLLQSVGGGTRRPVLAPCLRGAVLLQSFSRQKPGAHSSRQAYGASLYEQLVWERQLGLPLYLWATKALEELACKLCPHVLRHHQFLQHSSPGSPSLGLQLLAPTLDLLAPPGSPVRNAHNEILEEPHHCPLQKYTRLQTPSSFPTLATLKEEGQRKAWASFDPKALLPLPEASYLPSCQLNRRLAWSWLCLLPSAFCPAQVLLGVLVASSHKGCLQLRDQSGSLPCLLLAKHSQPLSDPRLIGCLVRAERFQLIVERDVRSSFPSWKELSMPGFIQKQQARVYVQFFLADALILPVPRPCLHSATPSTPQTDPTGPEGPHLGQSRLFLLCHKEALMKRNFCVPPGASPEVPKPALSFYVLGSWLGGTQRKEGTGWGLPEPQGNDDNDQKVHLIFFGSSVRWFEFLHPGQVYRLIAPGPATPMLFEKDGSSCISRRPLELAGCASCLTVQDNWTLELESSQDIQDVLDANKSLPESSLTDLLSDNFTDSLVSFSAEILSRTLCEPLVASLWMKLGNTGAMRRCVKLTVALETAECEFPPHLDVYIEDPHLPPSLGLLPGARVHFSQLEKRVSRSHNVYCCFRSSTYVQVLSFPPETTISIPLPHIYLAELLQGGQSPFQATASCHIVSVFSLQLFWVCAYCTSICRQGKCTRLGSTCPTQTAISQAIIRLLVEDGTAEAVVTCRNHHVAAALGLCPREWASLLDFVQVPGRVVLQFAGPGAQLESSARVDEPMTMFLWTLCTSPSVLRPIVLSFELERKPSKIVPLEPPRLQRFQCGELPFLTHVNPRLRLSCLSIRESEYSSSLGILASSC
Description: cryo-EM structure.

The target of test [2] is T2, His6-MBP-Ctc1/Stn1/Ten1 (human, UniProt Q2NKJ3;Q9H668;Q86WV5). Put plainly: SEC. Background: SEC sorts molecules by how far they enter the pores of the column.
T2 sequence (Q86WV5 whole entry, one chain of several): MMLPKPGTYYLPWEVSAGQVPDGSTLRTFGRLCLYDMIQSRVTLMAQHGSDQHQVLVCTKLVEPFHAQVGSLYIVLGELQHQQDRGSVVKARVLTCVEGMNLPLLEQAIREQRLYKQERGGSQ
Test [3] has as its target T2, His6-MBP-Ctc1/Stn1/Ten1. Put plainly: cryo-EM structure.
Test [4] concerns the target CST with the His6-MBP tag cleaved (human, UniProt Q2NKJ3;Q9H668;Q86WV5). Description: negative-stain EM.
The target in test [5] is T3, TwinStrep-GFP-TPP1 OB+RD (aa 1–251) (human, UniProt Q96AP0 1-251).
T3 sequence: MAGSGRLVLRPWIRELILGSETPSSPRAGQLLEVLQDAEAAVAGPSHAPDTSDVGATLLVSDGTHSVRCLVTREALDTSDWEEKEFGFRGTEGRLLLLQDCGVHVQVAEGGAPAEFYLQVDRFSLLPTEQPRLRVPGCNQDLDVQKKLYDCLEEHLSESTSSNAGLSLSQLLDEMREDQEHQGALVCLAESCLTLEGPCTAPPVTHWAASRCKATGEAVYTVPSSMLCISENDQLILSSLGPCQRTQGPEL
Put plainly: cryo-EM structure.

For test [6], the target named is T1, His6-MBP-Ctc1. Put plainly: cryo-EM structure. This is another data set of the same source.

The source of these data is publication PMC10197580 (bioRxiv, 2023).

Like-named read-outs stand apart in the source and are kept apart here.

Chain of CST with the His6-MBP tag cleaved (Q86WV5 whole entry, the tested form may be a part, one chain of several): as the sequence (Q86WV5 whole entry, one chain of several) above

B1: Stn1 (natural protein)
chain: MQPGSSRCEEETPSLLWGLDPVFLAFAKLYIRDILDMKESRQVPGVFLYNGHPIKQVDVLGTVIGVRERDAFYSYGVDDSTGVINCICWKKLNTESVSAAPSAARELSLTSQLKKLQETIEQKTKIEIGDTIRVRGSIRTYREEREIHATTYYKVDDPVWNIQIARMLELPTIYRKVYDQPFHSSALEKEEALSNPGALDLPSLTSLLSEKAKEFLMENRVQSFYQQELEMVESLLSLANQPVIHSASSDQVNFKKDTTSKAIHSIFKNAIQLLQEKGLVFQKDDGFDNLYYVTREDKDLHRKIHRIIQQDCQKPNHMEKGCHFLHILACARLSIRPGLSEAVLQQVLELLEDQSDIVSTMEHYYTAF
As for B1, the binding result in test [1] is listed as “binds”.

B2: POT1(SED)/GFP-TPP1 (complex)
chain 1: MSLVPATNYIYTPLNQLKGGTIVNVYGVVKFFKPPYLSKGTDYCSVVTIVDQTNVKLTCLLFSGNYEALPIIYKNGDIVRFHRLKIQVYKKETQGITSSGFASLTFEGTLGAPIIPRTSSKYFNFTTEDHKMVEALRVWASTHMSPSWTLLKLCDVQPMQYFDLTCQLLGKAEVDGASFLLKVWDGTRTPFPSWRVLIQDLVLEGDLSHIHRLQNLTIDILVYDNHVHVARSLKVGSFLRIYSLHTKLQSMNSENQTMLSLEFHLHGGTSYGRGIRVLPESNSDVDQLKKDLESANLTANQHSDVICQSEPDDSSPESDSVSLYEVERCQQLSATILTDHQYLERTPLCAILKQKAPQQYRIRAKLRSYKPRRLFQSVKLHCPKCHLLQEVPHEGDLDIIFQDGATKTPDVKLQNTSLYDSKIWTTKNQKGRKVAVHFVKNNGILPLSNECLLLIEGGTLSEICKLSNKFNSVIPVRSGHEDLELLDLSAPFLIQGTIHHYGCKQCSSLRSIQNLNSLVDKTSWIPSSVAEALGIVPLQYVFVMTFTLDDGTGVLEAYLMDSDKFFQIPASEVLMDDDLQKSVDMIMDMFCPPGIKIDAYPWLECFIKSYNVTNGTDNQICYQIFDTTVAEDVI
chain 2: T3 sequence
Turning to B2, in test [2], the binding result is recorded as “binds”.

B3: POT1(SED)/GFP-TPP1 treated with λ protein phosphatase (complex)
chain 1: B2 chain 1
chain 2: T3 sequence
modifications: dephosphorylated with λ protein phosphatase | dephosphorylated with λ protein phosphatase
In the case of B3, the binding result in test [2] was “binds”.

B4: His6-POT1(ESDL)/TwinStrep-GFP-TPP1 (complex)
chain 1: MSLVPATNYIYTPLNQLKGGTIVNVYGVVKFFKPPYLSKGTDYCSVVTIVDQTNVKLTCLLFSGNYEALPIIYKNGDIVRFHRLKIQVYKKETQGITSSGFASLTFEGTLGAPIIPRTSSKYFNFTTEDHKMVEALRVWASTHMSPSWTLLKLCDVQPMQYFDLTCQLLGKAEVDGASFLLKVWDGTRTPFPSWRVLIQDLVLEGDLSHIHRLQNLTIDILVYDNHVHVARSLKVGSFLRIYSLHTKLQSMNSENQTMLSLEFHLHGGTSYGRGIRVLPESNSDVDQLKKDLESANLTANQHSDVICQSEPDDSFPSSGSESDLVSLYEVERCQQLSATILTDHQYLERTPLCAILKQKAPQQYRIRAKLRSYKPRRLFQSVKLHCPKCHLLQEVPHEGDLDIIFQDGATKTPDVKLQNTSLYDSKIWTTKNQKGRKVAVHFVKNNGILPLSNECLLLIEGGTLSEICKLSNKFNSVIPVRSGHEDLELLDLSAPFLIQGTIHHYGCKQCSSLRSIQNLNSLVDKTSWIPSSVAEALGIVPLQYVFVMTFTLDDGTGVLEAYLMDSDKFFQIPASEVLMDDDLQKSVDMIMDMFCPPGIKIDAYPWLECFIKSYNVTNGTDNQICYQIFDTTVAEDVI
chain 2: T3 sequence
modifications: phosphorylated in insect cells (sites not identified)
Consider B4, for which the binding result in test [3] and in test [4] was “binds” in each case.

B5: POT1(ESDL) (natural protein)
chain: B4 chain 1
modifications: phosphorylated in insect cells (sites not identified)
Consider B5, for which the binding result in test [5] and in test [6] was “binds” in each case.
